Among the data in patent US20240309070A1 are Polyreactivity Insulin Score, CAR+ % Parent and EC50 values, retold here.

In general, EC50 refers to the concentration giving half of the maximal effect.

One experiment has as its target human insulin (human) (UniProt P01308). In words: polyreactivity ELISA, insulin coated, antibody 10 µg/mL, signal normalised to non-coated well. (In general: ELISA stands for enzyme-linked immunosorbent assay.)
Experiment [1] has as its target tEGFR (truncated EGFR) on vector-only transduced T cells (Homo sapiens (Human)) (UniProt P00533).
The target of experiment [2] is Western Reserve B5 on cells infected with VVddeGFP Western Reserve virus (Vaccinia virus, Western Reserve strain) (UniProt Q01227). As to the kind of experiment: flow cytometry, HT29 cells infected with WR VV (negative control). For orientation: A flow cytometer gives signals particle by particle.
Experiment [3] has the same target. As to the kind of experiment: flow cytometry, SKOV3 cells infected with WR VV (negative control).
Experiment [4] addresses Copenhagen B5 on cells infected with VVCopenhagen (YFP) virus (Vaccinia virus, Copenhagen strain) (UniProt P21115). In words: flow cytometry, HT29 cells infected with Copenhagen VV (negative control).

The substance Infliximab (antibody) registered a Polyreactivity Insulin Score with human insulin (human) of 2.9 score.
For “VV B5 monomer protein (Wyeth Vaccinia strain B5 with C-terminal AVI tag and HIS6 tag) (from UniProt O57254 18-279)”, the CAR+ % Parent in experiment [1] amounted to 1.54%.
In the case of human IgG1k isotype control (antibody), the values for the EC50 in experiment [2], in experiment [3] and in experiment [4] were 0.02 nM, 0.01 nM and 0.01 nM, respectively.
